Source: article PMC11482875

Biological target: miniTRIM37 RBhcc (human | T. thermophilus) (UniProt O94972)
Experiment: SEC-MALS

- stoichiometry N: 2
Substance: miniTRIM37 RBhcc (from UniProt O94972 1-158; O94972 214-254)
